Results: patent publication US20230241168A1 (ALPINE IMMUNE SCIENCES, published 2023)
Positions count from the first letter of the chain named. In names and notes the source's numbering stands. Like-named read-outs stand apart in the source and are kept apart here. No end group written: not given here.

T1: recombinant human APRIL (human, UniProt O75888 105-250, limits assumed)
T1 sequence (looked up): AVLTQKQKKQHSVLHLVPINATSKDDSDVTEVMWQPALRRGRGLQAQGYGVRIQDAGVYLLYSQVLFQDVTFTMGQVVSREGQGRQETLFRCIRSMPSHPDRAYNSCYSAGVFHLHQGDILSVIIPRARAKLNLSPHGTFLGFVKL

T2: recombinant human APRIL (human, UniProt O75888 105-250, limits assumed)
T2 construct: also called human APRIL (Tonbo Biosciences)
T2 sequence (looked up): T1 sequence (looked up)

T3: human CD80 (human, UniProt P33681 35-288)
T3 sequence (looked up): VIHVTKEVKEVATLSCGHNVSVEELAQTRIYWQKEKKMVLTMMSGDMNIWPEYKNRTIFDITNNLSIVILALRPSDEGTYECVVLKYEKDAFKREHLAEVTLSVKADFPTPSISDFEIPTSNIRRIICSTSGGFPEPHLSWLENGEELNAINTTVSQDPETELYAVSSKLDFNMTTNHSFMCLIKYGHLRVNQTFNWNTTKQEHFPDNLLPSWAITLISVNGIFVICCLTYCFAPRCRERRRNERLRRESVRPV

T4: human CD86 (human, UniProt P42081 24-329)
T4 sequence (looked up): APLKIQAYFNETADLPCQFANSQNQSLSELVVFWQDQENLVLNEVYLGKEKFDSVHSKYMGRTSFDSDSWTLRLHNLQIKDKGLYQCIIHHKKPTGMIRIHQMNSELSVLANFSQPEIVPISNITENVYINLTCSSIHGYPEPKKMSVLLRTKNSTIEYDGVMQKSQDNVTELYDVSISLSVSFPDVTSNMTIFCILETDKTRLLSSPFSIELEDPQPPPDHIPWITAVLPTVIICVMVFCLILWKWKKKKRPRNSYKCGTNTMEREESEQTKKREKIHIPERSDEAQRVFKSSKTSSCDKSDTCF

T5: human ICOSL (human, UniProt O75144 19-302)
T5 construct: whole, on cells
T5 sequence (looked up): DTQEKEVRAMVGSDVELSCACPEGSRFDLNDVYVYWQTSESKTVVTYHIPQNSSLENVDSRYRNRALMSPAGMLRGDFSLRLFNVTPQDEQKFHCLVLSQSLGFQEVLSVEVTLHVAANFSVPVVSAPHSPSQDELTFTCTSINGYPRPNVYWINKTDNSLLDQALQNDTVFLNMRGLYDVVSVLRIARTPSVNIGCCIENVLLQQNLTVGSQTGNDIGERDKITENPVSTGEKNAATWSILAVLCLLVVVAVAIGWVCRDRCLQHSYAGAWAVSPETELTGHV

B1: Belimumab (antibody, V domains shown)
VH: QVQLQQSGAEVKKPGSSVRVSCKASGGTFNNNAINWVRQAPGQGLEWMGGIIPMFGTAKYSQNFQGRVAITADESTGTASMELSSLRSEDTAVYYCARSRDLLLFPHHALSPWGRGTMVTVSS
VL: SSELTQDPAVSVALGQTVRVTCQGDSLRSYYASWYQQKPGQAPVLVIYGKNNRPSGIPDRFSGSSSGNTASLTITGAQAEDEADYYCSSRDSSGNHWVFGGGTELTVLG
B2: 528 TACI CRD2-Fc (Fc fusion, not shown: a dimerising Fc or GST)
chain: SLSCRKEQGKFYDHLLRDCISCASICGQHPKQCAYFCENKLRS
modifications: not fully specified (C-terminus); cysteine pairing not given here; also: Fc fusion, linker and Fc not given here
B3: 528 TACI CRD2-Fc (Fc fusion, not shown: a dimerising Fc or GST)
chain: B2 chain
modifications: cysteine pairing not given here; also: Fc fusion, linker and Fc not given here
notes: Fc fusion; also called WT TACI-Fc containing only the CRD2 domain of TACI; TACI 68-110 Fc
B4: CTLA-4 186 GSG4S Fc (G4S)4 TACI 541 (Fc fusion)
chain: KAMHVAQPAVVLASSRGIASFVCEYASPWKATEVRVTVLRQADSQVTEVCAATYMMGNELTFLDDSICTGTSSGNQVNLTIQGLRAMDTGLYICKVEQMYPPPYLLGIGNGTQIYVIDPEPCPDSDGSGGGGSEPKSSDKTHTCPPCPAPEAEGAPSVFLFPPKPKDTLMISRTPEVTCVVVDVSHEDPEVKFNWYVDGVEVHNAKTKPREEQYNSTYRVVSVLTVLHQDWLNGKEYKCKVSNKALPAPIEKTISKAKGQPREPQVYTLPPSRDELTKNQVSLTCLVKGFYPSDIAVEWESNGQPENNYKTTPPVLDSDGSFFLYSKLTVDKSRWQQGNVFSCSVMHEALHNHYTQKSLSLSPGGGGGSGGGGSGGGGSGGGGSSLSCRKEQGEYYDHLLRDCISCASICGQHPKQCADFCENKLRS
B5: CTLA-4 186 GSG4S Fc (G4S)4 (TACI 542) (Fc fusion)
chain: B4 chain with Q392E, E394K, Y395F, R401Q, D419Y
B6: variant CTLA-4 ECD-Fc G29W/L98Q/Y105L (Fc fusion)
chain: KAMHVAQPAVVLASSRGIASFVCEYASPWKATEVRVTVLRQADSQVTEVCAATYMMGNELTFLDDSICTGTSSGNQVNLTIQGLRAMDTGLYICKVEQMYPPPYLLGIGNGTQIYVIDPEPCPDSDGSGGGGSEPKSSDKTHTCPPCPAPEAEGAPSVFLFPPKPKDTLMISRTPEVTCVVVDVSHEDPEVKFNWYVDGVEVHNAKTKPREEQYNSTYRVVSVLTVLHQDWLNGKEYKCKVSNKALPAPIEKTISKAKGQPREPQVYTLPPSRDELTKNQVSLTCLVKGFYPSDIAVEWESNGQPENNYKTTPPVLDSDGSFFLYSKLTVDKSRWQQGNVFSCSVMHEALHNHYTQKSLSLSPG
B7: variant CTLA-4 ECD-Fc M56T/L98Q/Y105L (Fc fusion)
chain: B6 chain with W29G, M56T
B8: TACI WT Fc (Fc fusion, not shown: a dimerising Fc or GST)
chain: VAMRSCPEEQYWDPLLGTCMSCKTICNHQSQRTCAAFCRSLSCRKEQGKFYDHLLRDCISCASICGQHPKQCAYFCENKLRS
B9: CTLA-4 186GSG4S-Fc-(G4S)4-BCMA 405 (Fc fusion)
chain: KAMHVAQPAVVLASSRGIASFVCEYASPWKATEVRVTVLRQADSQVTEVCAATYMMGNELTFLDDSICTGTSSGNQVNLTIQGLRAMDTGLYICKVEQMYPPPYLLGIGNGTQIYVIDPEPCPDSDGSGGGGSEPKSSDKTHTCPPCPAPEAEGAPSVFLFPPKPKDTLMISRTPEVTCVVVDVSHEDPEVKFNWYVDGVEVHNAKTKPREEQYNSTYRVVSVLTVLHQDWLNGKEYKCKVSNKALPAPIEKTISKAKGQPREPQVYTLPPSRDELTKNQVSLTCLVKGFYPSDIAVEWESNGQPENNYKTTPPVLDSDGSFFLYSKLTVDKSRWQQGNVFSCSVMHEALHNHYTQKSLSLSPGGGGGSGGGGSGGGGSGGGGSLQMAGQCSQNEYFDSLLKACIPCQLRCSSNTPPLTCQRYCNASVTNSVKGTNA
B10: CTLA-4 186-GSG4S-Fc-(G4S)4-BCMA 406 (Fc fusion)
chain: B9 chain with K402L

Columns and labels:
[1] = target: recombinant human APRIL (human) (UniProt O75888); assay: cell-based or functional assay; set-up: IC50 APRIL (Δ TACI 30-110-Fc) / IC50 BAFF (Δ TACI 30-110-Fc): unit not given beside the values
[2] = target: recombinant human BAFF (human) (UniProt Q9Y275); assay: cell-based or functional assay; set-up: IC50 APRIL (Δ TACI 30-110-Fc) / IC50 BAFF (Δ TACI 30-110-Fc): unit not given beside the values
[3] = target: recombinant human APRIL (human) (UniProt O75888); assay: cell-based or functional assay; set-up: IC50 APRIL (Δ Parental vTD) / IC50 BAFF (Δ Parental vTD): unit not given beside the values
[4] = target: recombinant human BAFF (human) (UniProt Q9Y275); assay: cell-based or functional assay; set-up: IC50 APRIL (Δ Parental vTD) / IC50 BAFF (Δ Parental vTD): unit not given beside the values
recombinant human BAFF [5] = target: T6, recombinant human BAFF (human, UniProt Q9Y275 134-285); assay: cell-based or functional assay
recombinant human APRIL [6] = target: T1, recombinant human APRIL; assay: cell-based or functional assay
recombinant human BAFF [7] = target: T7, recombinant human BAFF (human, UniProt Q9Y275 134-285); assay: told in the description with reference to Example 8 (Jurkat/NF-κB/TACI reporter blockade)
T7 construct: also called human BAFF (BioLegend)

recombinant human APRIL [8] = target: T2, recombinant human APRIL; assay: as above
human CD80 = target: T3, human CD80; assay: cell-based or functional assay
human CD86 = target: T4, human CD86; assay: cell-based or functional assay
recombinant human BAFF [9] = target: T6, recombinant human BAFF; assay: cell-based or functional assay; remark: listed apart in the source
recombinant human APRIL [10] = target: T1, recombinant human APRIL; assay: cell-based or functional assay; remark: listed apart in the source
human ICOSL = target: T5, human ICOSL; assay: flow cytometry, cells expressing human ICOSL

Row | Molecule | IC50 (nM) APRIL [1] | IC50 APRIL (Δ TACI 30-110-Fc) [1] | IC50 (nM) BAFF [2] | IC50 BAFF (Δ TACI 30-110-Fc) [2] | CD80 IC50 (human CD80) | CD80 IC50 (Δ Parental CTLA-4) (human CD80) | CD86 IC50 (human CD86) | CD86 IC50 (Δ Parental CTLA-4) (human CD86) | IC50 (nM) BAFF (recombinant human BAFF [9]) | IC50 (nM) APRIL (recombinant human APRIL [10]) | also measured
1 | TACI 13-118-Fc (Fc fusion) | 9100 nM | 2.37 | 7700 nM | 1.33 | – | – | – | – | – | – | –
2 | BCMA WT-Fc (Fc fusion) | 183 nM | 0.05 | 823 nM | 0.14 | – | – | – | – | – | – | IC50 (nM) APRIL [3]: 1.03 nM; IC50 APRIL (Δ Parental vTD) [3]: 1; IC50 (nM) BAFF [4]: 0.995 nM; IC50 BAFF (Δ Parental vTD) [4]: 1
3 | TACI 30-110-Fc (Fc fusion) | 3850 nM | 1 | 5770 nM | 1 | – | – | – | – | – | – | –
4 | B1 | – | – | – | – | – | – | – | – | – | – | IC50 (nM) BAFF (recombinant human BAFF [5]): 2500 nM; IC50 BAFF (Δ TACI 30-110-Fc) (recombinant human BAFF [5]): 0.43 ratio; IC50 (nM) APRIL (recombinant human APRIL [6]): 215000 nM; IC50 APRIL (Δ TACI 30-110-Fc) (recombinant human APRIL [6]): 55.8 ratio
5 | B2 | 369 nM | 0.1 | 1330 nM | 0.23 | – | – | – | – | – | – | –
6 | B3 | – | – | – | – | – | – | – | – | – | – | binding result (recombinant human BAFF [7]): binds; binding result (recombinant human APRIL [8]): binds
7 | B4 | – | – | – | – | 56.9 nM | 1.7 ratio | 10.2 nM | 1.2 ratio | 0.103 nM | 1.56 nM | IC50 (nM) BAFF (recombinant human BAFF [5]): 1260 nM; IC50 BAFF (Δ TACI 30-110-Fc) (recombinant human BAFF [5]): 0.22 ratio; IC50 (nM) APRIL (recombinant human APRIL [6]): 272 nM; IC50 APRIL (Δ TACI 30-110-Fc) (recombinant human APRIL [6]): 0.07 ratio
8 | B5 | – | – | – | – | 82.6 nM | 2.5 ratio | 9 nM | 1.1 ratio | 0.153 nM | 2.49 nM | –
9 | B6 | – | – | – | – | 33.6 nM | 1 ratio | 8.2 nM | 1 ratio | – | – | MFI (human ICOSL): 570 MFI
10 | B7 | – | – | – | – | – | – | – | – | – | – | MFI (human ICOSL): 700 MFI
11 | B8 | – | – | – | – | – | – | – | – | – | – | IC50 (nM) APRIL [3]: 9.17 nM; IC50 APRIL (Δ Parental vTD) [3]: 1; IC50 (nM) BAFF [4]: 2.58 nM; IC50 BAFF (Δ Parental vTD) [4]: 1
12 | B9 | – | – | – | – | 70.1 nM | 2.1 ratio | 10.8 nM | 1.3 ratio | 0.16 nM | 18.4 nM | –
13 | B10 | – | – | – | – | 25.2 nM | 0.8 ratio | 8.1 nM | 1.3 ratio | 0.49 nM | 0.997 nM | IC50 (nM) BAFF (recombinant human BAFF [5]): 2630 nM; IC50 BAFF (Δ TACI 30-110-Fc) (recombinant human BAFF [5]): 0.46 ratio; IC50 (nM) APRIL (recombinant human APRIL [6]): 269 nM; IC50 APRIL (Δ TACI 30-110-Fc) (recombinant human APRIL [6]): 0.07 ratio
